Laboratory results reported in paper PMC9166816, “RNF219 regulates CCR4-NOT function in mRNA translation and deadenylation” (Scientific Reports, 2022).

B1: lambdaN-peptide and HA-tagged RNF219 (NHA-RNF219) (natural protein)
chain: MAQTVQNVTLSLTLPITCHICLGKVRQPVICINNHVFCSICIDLWLKNNSQCPACRVPITPENPCKEIIGGTSESEPMLSHTVRKHLRKTRLELLHKEYEDEIDCLQKEVEELKSKNLSLESQIKTILDPLTLVQGNQNEDKHLVTDNPSKINPETVAEWKKKLRTANEIYEKVKDDVDKLKEANKKLKLENGGLVRENLRLKAEVDNRSPQKFGRFAVAALQSKVEQYERETNRLKKALERSDKYIEELESQVAQLKNSSEEKEAMNSICQTALSADGKGSKGSEEDVVSKNQGDSARKQPGSSTSSSSHLAKPSSSRLCDTSSARQESTSKADLNCSKNKDLYQEQVEVMLDVTDTSMDTYLEREWGNKPSDCVPYKDEELYDLPAPCTPLSLSCLQLSTPENRESSVVQAGGSKKHSNHLRKLVFDDFCDSSNVSNKDSSEDDISRSENEKKSECFSSPKTGFWDCCSTSYAQNLDFESSEGNTIANSVGEISSKLSEKSGLCLSKRLNSIRSFEMNRTRTSSEASMDAAYLDKISELDSMMSESDNSKSPCNNGFKSLDLDGLSKSSQGSEFLEEPDKLEEKTELNLSKGSLTNDQLENGSEWKPTSFFLLSPSDQEMNEDFSLHSSSCPVTNEIKPPSCLFQTEFSQGILLSSSHRLFEDQRFGSSLFKMSSEMHSLHNHLQSPWSTSFVPEKRNKNVNQSTKRKIQSSLSSASPSKATKS
B2: RNF219-Id, CCR4-NOT complex interaction defective RNF219 allele (natural protein)
chain: MAQTVQNVTLSLTLPITCHICLGKVRQPVICINNHVFCSICIDLWLKNNSQCPACRVPITPENPCKEIIGGTSESEPMLSHTVRKHLRKTRLELLHKEYEDEIDCLQKEVEELKSKNLSLESQIKTILDPLTLVQGNQNEDKHLVTDNPSKINPETVAEWKKKLRTANEIYEKVKDDVDKLKEANKKLKLENGGLVRENLRLKAEVDNRSPQKFGRFAVAALQSKVEQYERETNRLKKALERSDKYIEELESQVAQLKNSSEEKEAMNSICQTALSADGKGSKGSEEDVVSKNQGDSARKQPGSSTSSSSHLAKPSSSRLCDTSSARQESTSKADLNCSKNKDLYQEQVEVMLDVTDTSMDTYLEREWGNKPSDCVPYKDEELYDLPAPCTPLSLSCLQLSTPENRESSVVQAGGSKKHSNHLRKLVFDDFCDSSNVSNKDSSEDDISRSENEKKSECFSSPKTGFWDCCSTSYAQNLDFESSEGNTIANSVGEISSKLSEKSGLCLSKRLNSIRSFEMNRTRTSSEASMDAAYLDKISVENSKSPCNNGFKSLDLDGLSKSSQGSEFLEEPDKLEEKTELNLSKGSLTNDQLENGSEWKPTSFFLLSPSDQEMNEDFSLHSSSCPVTNEIKPPSCLFQTEFSQGILLSSSHRLFEDQRFGSSLFKMSSEMHSLHNHLQSPWSTSFVPEKRNKNVNQSTKRKIQSSLSSASPSKATKS

Target: CCR4-NOT complex (human (endogenous in human cell lines), UniProt A5YKK6 1-2376; Q9NZN8 1-540; O75175 1-753; Q9H9A5 1-744; Q9UKZ1 1-510)
Assay: cell-based or functional assay

| Renilla/Firefly luciferase ratio (RL/FL) of the 5BoxB reporter with tethered NHA-RNF219 | Renilla/Firefly luciferase ratio (RL/FL) of the 5BoxB reporter with tethered NHA-RNF219-Id (lambdaN-HA tagged form of the allele) | Binder |
| --- | --- | --- |
| 0.307 RL/FL ratio |  | B1 |
|  | 1.5 RL/FL ratio | B2 |
